According to PMC12806343, “Aptamer‐Engineered Ellipsometry for Clinical Detection of BALF‐Derived Exosomes: Multi‐Level Engineering for Prognostic Evaluation of Immunotherapy Responses”:

Assays:
[1] = target: recombinant human PD-L1 (Homo sapiens, UniProt Q9NZQ7 19-238); test: BLI; PD-L1 immobilized on AR probe; BLI: 1x PBS pH 7.4, aptamers 3-12 uM, 300 s association, 600 s dissociation, temperature not stated; EMSA: TBE-PAGE, binding buffer composition not given; settings: protein: commercial; stem-loop
recombinant human PD-L1, sequence (Q9NZQ7 19-238): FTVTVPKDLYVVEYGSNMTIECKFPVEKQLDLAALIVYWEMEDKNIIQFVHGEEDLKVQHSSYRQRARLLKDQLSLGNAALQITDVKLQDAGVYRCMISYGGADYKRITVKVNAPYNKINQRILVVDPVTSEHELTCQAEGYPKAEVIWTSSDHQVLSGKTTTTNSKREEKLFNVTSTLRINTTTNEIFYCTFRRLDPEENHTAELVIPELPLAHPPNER

[2] = target: PD-L1 on MDA-MB-231-derived exosomes (UniProt Q9NZQ7 19-290); test: ellipsometry (DP-SIS); exosomes 1e1-1e8 particles/mL; no detectable signal; BLI: 1x PBS pH 7.4, aptamers 3-12 uM, 300 s association, 600 s dissociation, temperature not stated; EMSA: TBE-PAGE, binding buffer composition not given; settings: protein: native; stem-loop
PD-L1 on MDA-MB-231-derived exosomes, sequence (Q9NZQ7 19-290): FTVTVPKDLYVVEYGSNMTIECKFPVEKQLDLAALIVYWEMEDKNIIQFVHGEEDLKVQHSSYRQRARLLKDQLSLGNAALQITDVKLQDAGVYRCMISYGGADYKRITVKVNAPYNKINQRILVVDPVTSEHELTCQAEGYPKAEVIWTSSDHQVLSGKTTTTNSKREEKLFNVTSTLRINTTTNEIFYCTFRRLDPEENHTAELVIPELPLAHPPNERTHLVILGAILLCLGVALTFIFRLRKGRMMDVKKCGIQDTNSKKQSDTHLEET

Binder	Kd [1] [nM]	binding result [2]
ATAGTCCCTGGCGTGCTTGGTCGGCAGAGCAGGTACGGTGTCA (structured_DNA, 5' amine (NH2)) [Apt45]	~186	no binding
GTACCTGCTCTCCGCGCGAAGCACGCCAGGGACT (structured_DNA, 5' amine (NH2)) [Tr-Apt13]	~991	
TGACACCGTACCTGCTCTCCGCGCGAAGCACGCCAGGGACTAT (structured_DNA, 5' amine (NH2)) [Apt13]	~714	
